The target of the data set is Coagulation factor IXa (FIXa) (Homo sapiens, UniProt P00740;P00740 P00740:47-191,P00740:227-461). Description: EMSA; estimated by mobility shift compared to a known FIXa aptamer; native PAGE 4 C; T7 transcript starts with GG before F5. To be noted: tags: Haematologic Technologies; immobilized on con-A beads for partitioning; putative G/U quadruplex.
Sequence of Coagulation factor IXa (FIXa) (P00740 47-191, chain 1 of 2): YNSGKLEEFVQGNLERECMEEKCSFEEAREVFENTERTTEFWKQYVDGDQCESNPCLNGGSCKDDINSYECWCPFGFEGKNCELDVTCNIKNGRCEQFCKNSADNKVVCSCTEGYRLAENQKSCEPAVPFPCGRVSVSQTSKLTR
Sequence of Coagulation factor IXa (FIXa) (P00740 227-461, chain 2 of 2): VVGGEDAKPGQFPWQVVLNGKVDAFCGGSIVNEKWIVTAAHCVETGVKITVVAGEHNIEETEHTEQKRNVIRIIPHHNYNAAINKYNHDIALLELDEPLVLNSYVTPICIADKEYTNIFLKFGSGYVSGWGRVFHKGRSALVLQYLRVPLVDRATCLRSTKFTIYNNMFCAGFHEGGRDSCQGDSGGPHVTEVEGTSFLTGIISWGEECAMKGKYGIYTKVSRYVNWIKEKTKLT

B1: FIXa aptamer rank 2 (SEQ 114/151) (ssRNA)
RNA: ACGACGCUCUUCCGAUCUAUGGAGGGCAGCCCGGUAGUCGCCCACGGGGAACGCGUCAAGCUAACGGAGCUCGUAUGC
The Kd is a measure of binding affinity in units of concentration. For B1, the Kd was about 220 nM.

B2: FIXa aptamer rank 3 (SEQ 122/152) (ssRNA)
RNA: ACGACGCUCUUCCGAUCUAUGGUCAUACGCGCAGGCUGGAGGUAUUACCCCCCGGGCAAGCUAACGGAGCUCGUAUGC
Turning to B2, the Kd is about 700 nM.

B3: FIXa aptamer rank 1 (SEQ 133/150) (ssRNA)
RNA: ACGACGCUCUUCCGAUCUAUGGUUCCAGUCGGUGAACUUCCUGAGUCCGGUGUGUGCAAGCUAACGGAGCUCGUAUGC
Turning to B3, the Kd was about 220 nM.

The record behind these values is US20130217582, “Library Compositions and Methods for Acyclic Identification of Aptamers” (published 2013).
